# B1: E3 ubiquitin-protein ligase RNF146 (Homo sapiens), Q9NTX7 (parent)
# chain: MMAGCGEIDHSINMLPTNRKANESCSNTAPSLTVPECAICLQTCVHPVSLPCKHVFCYLCVKGASWLGKRCALCRQEIPEDFLDKPTLLSPEELKAASRGNGEYAWYYEGRNGWWQYDERTSRELEDAFSKGKKNTEMLIAGFLYVADLENMVQYRRNEHGRRRKIKRDIIDIPKKGVAGLRLDCDANTVNLARESSADGADSVSAQSGASVQPLVSSVRPLTSVDGQLTSPATPSPDASTSLEDSFAHLQLSGDNTAERSHRGEGEEDHESPSSGRVPAPDTSIEETESDASSDSEDVSAVVAQHSLTQQRLLVSNANQTVPDRSDRSGTDRSVAGGGTVSVSVRSRRPDGQCTVTEV
# Variants of: B1
# Settings: with tnks1_human TNKS
row,Variant,effect of a mutation on the interaction
1,G338V;G339V,decreasing interaction strength

# Variants of: B1
# Settings: with tnks1_human TNKS
# Remark: another data set of the same source
row,Variant,effect of a mutation on the interaction
1,G200V,decreasing interaction strength
2,G200V;G338V;G339V,decreasing interaction strength

# Reference: IntAct's records for PubMed 25327252
